Bridges are numbered along the chain shown (N, C = ends). Where no end group is shown, it is not given here.
T1: alpha subunit of the human FcεRI receptor (IgE high affinity receptor), expressed on Chinese hamster ovary … (human, UniProt P12319 26-257)
T1 construct: whole, on cells; also called CHO FcεRI+ cells; FcεRIα
T1 sequence (looked up): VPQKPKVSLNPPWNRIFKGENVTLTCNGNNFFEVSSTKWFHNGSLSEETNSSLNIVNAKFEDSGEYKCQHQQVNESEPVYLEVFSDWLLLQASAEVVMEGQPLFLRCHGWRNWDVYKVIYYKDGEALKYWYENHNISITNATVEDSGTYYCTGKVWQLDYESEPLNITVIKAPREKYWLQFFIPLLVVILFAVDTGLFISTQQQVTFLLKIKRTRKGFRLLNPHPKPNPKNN

B1: IGE119 (peptide)
peptide: NGCPGWCYVGGKALCPDVCYV-NH2
modifications: disulfide 7-15, 3-19; N-terminus assumed
SMILES: CC(C)C[C@@H]1NC(=O)[C@H](C)NC(=O)[C@H](CCCCN)NC(=O)CNC(=O)CNC(=O)[C@H](C(C)C)NC(=O)[C@H](Cc2ccc(O)cc2)NC(=O)[C@@H]2CSSC[C@H](NC1=O)C(=O)N1CCC[C@H]1C(=O)N[C@@H](CC(=O)O)C(=O)N[C@@H](C(C)C)C(=O)N[C@H](C(=O)N[C@@H](Cc1ccc(O)cc1)C(=O)N[C@H](C(N)=O)C(C)C)CSSC[C@H](NC(=O)CNC(=O)[C@@H](N)CC(N)=O)C(=O)N1CCC[C@H]1C(=O)NCC(=O)N[C@@H](Cc1c[nH]c3ccccc13)C(=O)N2
B2: IGE083 (peptide)
peptide: ALCPAVCYVGGKALCPDVCYV-NH2
modifications: disulfide 7-15, 3-19; N-terminus assumed
SMILES: CC(C)C[C@H](NC(=O)[C@H](C)N)C(=O)N[C@H]1CSSC[C@@H](C(=O)N[C@@H](Cc2ccc(O)cc2)C(=O)N[C@H](C(N)=O)C(C)C)NC(=O)[C@H](C(C)C)NC(=O)[C@H](CC(=O)O)NC(=O)[C@@H]2CCCN2C(=O)[C@@H]2CSSC[C@H](NC(=O)[C@H](C(C)C)NC(=O)[C@H](C)NC(=O)[C@@H]3CCCN3C1=O)C(=O)N[C@@H](Cc1ccc(O)cc1)C(=O)N[C@@H](C(C)C)C(=O)NCC(=O)NCC(=O)N[C@@H](CCCCN)C(=O)N[C@@H](C)C(=O)N[C@@H](CC(C)C)C(=O)N2
B3: IGE037 (peptide)
peptide: ALCPAVCYV-NH2
modifications: disulfide 3-7 (inferred); also: synthesized as monomer, spontaneously formed a dimer
B4: IGE089 (peptide)
peptide: ALCPAVCYV-NH2
modifications: also: antiparallel disulfide-linked homodimer, interchain C3-C7' and C7-C3'
notes: also called antiparallel covalent dimer of IGE037
B5: IGE132 (peptide)
peptide: VQCPHFCYVGGHALCPDVCYVGR
modifications: not fully specified (bridges); cysteine pairing not given here
notes: produced as Z-domain fusion in E. coli and released with trypsin
B6: IGE142 (peptide)
peptide: VQCAHFCYVGGHALCPDVCYVGR
modifications: disulfide (positions not given here)
notes: as for B5
B7: IGE145 (peptide)
peptide: VQCPDFCYVGGHALCPDVCYVGR
modifications: not fully specified; cysteine pairing not given here
notes: as for B5
B8: IGE130 (peptide)
peptide: ALCPDVCYVGGKVQCPHFCYV-NH2
modifications: disulfide 7-15, 3-19; N-terminus assumed
SMILES: CC(C)C[C@H](NC(=O)[C@H](C)N)C(=O)N[C@H]1CSSC[C@@H](C(=O)N[C@@H](Cc2ccc(O)cc2)C(=O)N[C@H](C(N)=O)C(C)C)NC(=O)[C@H](Cc2ccccc2)NC(=O)[C@H](Cc2c[nH]cn2)NC(=O)[C@@H]2CCCN2C(=O)[C@@H]2CSSC[C@H](NC(=O)[C@H](C(C)C)NC(=O)[C@H](CC(=O)O)NC(=O)[C@@H]3CCCN3C1=O)C(=O)N[C@@H](Cc1ccc(O)cc1)C(=O)N[C@@H](C(C)C)C(=O)NCC(=O)NCC(=O)N[C@@H](CCCCN)C(=O)N[C@@H](C(C)C)C(=O)N[C@@H](CCC(N)=O)C(=O)N2

Molecular target: T1, alpha subunit of the human FcεRI …
Assay: inhibition of 125I-IgE binding to CHO cells expressing human FcεRI alpha; competitor IgE
Protocol: To determine the ability of peptides to inhibit IgE binding to FcεRI, a cell-based binding assay was used with radiolabeled IgE. Chinese hamster ovary cells expressing the alpha subunit of the human FcεRI receptor were cultured overnight in Falcon 96 well microtiter plates at a concentration of 5 ×10^4 cells per well. The following day the cells were rinsed three times with PBS and then once with F12/DMEM. Peptide stocks were reconstituted in 100 mM Hepes buffered water, pH 7.2, at a concentration of 5 mg/mL. Working concentrations of the peptide were diluted in assay buffer (see below). 75 uL of a desired concentration of peptide was added to the top row of a separate 96 well microtiter plate and serially diluted 1:3 in 50 uL of the assay buffer (F12/DMEM, 1% BSA, 0.05% NaN_3 and 0.025 mM Hepes pH 7.2). Starting concentrations ranged from 50–500 uM. Next, 50 uL of the diluted peptide was transferred to the 96 microtiter well plate containing a monolayer of CHO FcεRI+ cells. […] Cells were […]

Row | Binder | IC50 [nM]
1 | VQCPHFCYVGGKVQCPHFCYV-NH2 (not fully specified (bridges); cysteine pairing not given here) [IGE131] | 2300
2 | B1 | 1400
3 | IVCPRLCYVGGKALCPDVCYV-NH2 (not fully specified (bridges); cysteine pairing not given here) [IGE120] | 290
4 | IVCARLCYVGGKALCPDVCYV-NH2 (not fully specified (bridges); cysteine pairing not given here) [IGE127] | 13000
5 | VTCPRWCYVGGKALCPDVCYV-NH2 (cysteine pairing not given here) [IGE126] | 380
6 | VVCPNMCYVGGKALCPDVCYV-NH2 (not fully specified (bridges); cysteine pairing not given here) [IGE121] | 340
7 | VKCPSLCYVGGKALCPDVCYV-NH2 (not fully specified (bridges); cysteine pairing not given here) [IGE123] | 180
8 | VPCPELCYVGGKALCPDVCYV-NH2 (not fully specified (bridges); cysteine pairing not given here) [IGE124] | 890
9 | KSCPLWCYVGGKALCPDVCYV-NH2 (not fully specified (bridges); cysteine pairing not given here) [IGE128] | 240
10 | B2 | 1100
11 | VQCPHFCYELDYELCPDVCYV-NH2 (not fully specified (bridges); cysteine pairing not given here) [IGE134] | 32
12 | VQCPHFCYELDYELCPDKCYT-NH2 (not fully specified (bridges); cysteine pairing not given here) [IGE173] | 61
13 | VQCPHFCYELDYELCPWKCYT-NH2 (not fully specified (bridges); cysteine pairing not given here) [IGE174] | 172
14 | B3 | 251000
15 | B4 | 64000
16 | B5 | 80
17 | B6 | 1000
18 | B7 | 117
19 | B8 | 250
20 | VQCPHFCYVGGKALCPDVCYV-NH2 (not fully specified (bridges); cysteine pairing not given here) [IGE122] | 170
21 | VQCPHFCYVGGKALCPDKCYT-NH2 (cysteine pairing not given here) [IGE148] | 94
22 | VQCPHFCYVGGKALCPDPCYV-NH2 (cysteine pairing not given here) [IGE149] | 166
23 | VQCPHFCYVGGKALCPDKCYV-NH2 (cysteine pairing not given here) [IGE147] | 158
24 | VQCPHFCYVGGKALCPDVCDV-NH2 (not fully specified (bridges); cysteine pairing not given here) [IGE150] | 1230

Reference: US7101851 (dated 2006)
